# Measured values published in PMC10874396, “Spatiotemporal and direct capturing global substrates of lysine-modifying enzymes in living cells” (Nature Communications, 2024).
# T1: PatZ-L813o-NBAK (E. coli, UniProt P76594 1-886, L813o-NBAK, o-NBAK (o-nitrobenzyl alcohol-derived lysine, unnatural amino acid photo-crosslinker) at 813)
# T1 construct: PatZ, protein lysine acetyltransferase of E. coli, amber codon at L813 read as o-NBAK; o-NBAK is a lysine derivative; also called PatZ-L813o-NBAK mutant; o-NBAK encoded enzyme; source: E. coli BL21(DE3), in living cells; also purified (Ni-NTA) for in vitro crosslinking
# T1 sequence (looked up): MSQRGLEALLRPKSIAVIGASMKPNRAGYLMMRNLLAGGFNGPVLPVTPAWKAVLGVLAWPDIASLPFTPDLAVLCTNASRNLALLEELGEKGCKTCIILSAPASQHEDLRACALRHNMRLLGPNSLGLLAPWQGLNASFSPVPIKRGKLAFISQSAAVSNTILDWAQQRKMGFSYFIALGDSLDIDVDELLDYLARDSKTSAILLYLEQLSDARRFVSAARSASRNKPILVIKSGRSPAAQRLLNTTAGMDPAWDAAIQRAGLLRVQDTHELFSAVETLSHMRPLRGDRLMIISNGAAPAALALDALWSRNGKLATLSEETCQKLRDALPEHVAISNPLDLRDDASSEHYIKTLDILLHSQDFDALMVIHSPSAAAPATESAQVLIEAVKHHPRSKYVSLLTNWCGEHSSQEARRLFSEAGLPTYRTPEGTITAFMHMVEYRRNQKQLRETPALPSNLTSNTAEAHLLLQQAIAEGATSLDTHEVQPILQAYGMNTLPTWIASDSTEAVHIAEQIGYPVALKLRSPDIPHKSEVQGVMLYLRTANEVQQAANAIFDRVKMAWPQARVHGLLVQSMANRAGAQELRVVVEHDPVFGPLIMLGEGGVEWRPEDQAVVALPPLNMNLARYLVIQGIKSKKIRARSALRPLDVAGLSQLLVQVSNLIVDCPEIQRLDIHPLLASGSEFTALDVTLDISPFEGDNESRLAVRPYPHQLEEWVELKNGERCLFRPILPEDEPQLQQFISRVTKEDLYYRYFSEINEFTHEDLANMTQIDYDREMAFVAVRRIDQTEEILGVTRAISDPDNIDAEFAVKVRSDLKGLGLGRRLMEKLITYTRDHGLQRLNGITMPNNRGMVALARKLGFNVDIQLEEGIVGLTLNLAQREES
# B1: DnaJ (purified recombinant) (natural protein, E. coli, UniProt P08622 1-376, looked up)
# chain: MAKQDYYEILGVSKTAEEREIRKAYKRLAMKYHPDRNQGDKEAEAKFKEIKEAYEVLTDSQKRAAYDQYGHAAFEQGGMGGGGFGGGADFSDIFGDVFGDIFGGGRGRQRAARGADLRYNMELTLEEAVRGVTKEIRIPTLEECDVCHGSGAKPGTQPQTCPTCHGSGQVQMRQGFFAVQQTCPHCQGRGTLIKDPCNKCHGHGRVERSKTLSVKIPAGVDTGDRIRLAGEGEAGEHGAPAGDLYVQVQVKQHPIFEREGNNLYCEVPINFAMAALGGEIEVPTLDGRVKLKVPGETQTGKLFRMRGKGVKSVRGGAQGDLLCRVVVETPVGLNERQKQLLQELQESFGGPTGEHNSPRSKSFFDGVKKFFDDLTR
# notes: DnaJ, E. coli; may be in the Supplementary Information
# Target: T1, PatZ-L813o-NBAK
# Test: cross-linking; in vitro: purified o-NBAK enzyme mixed with purified partner protein in PBS 150 mM NaCl pH 7.5, 365 nm UV 15 min on ice, SDS-PAGE, extra band cut, LC-MS/MS of crosslinked peptides
# Settings: both partners purified
binder,measurement,value
B1,binding result,binds
